Data on six molecules can be found in US20260176636, “APTAMER-DIRECT INHIBITOR CONJUGATES AND METHODS OF USING THE SAME” (Duke University, published 2026).

Where only a bound is given, the exact number is not on record here.

The Kd is the free concentration of one partner at which half of the binding sites on the other are occupied at equilibrium, for simple one-to-one binding. A high value points to weaker binding. The term IC50 denotes the concentration needed to halve the response being measured. Low readings indicate higher potency, high ones lower potency.

The target in data set [1] is T1, thrombin (human alpha thrombin) (human, UniProt P00734;P00734 P00734:328-363,P00734:364-622). The experiment in a line: BLI; printed as 54 μM but kon 3.9e7 M-1s-1 and koff 2.1e-3 s-1 give 54 pM; biotinylated aptamer immobilised; 20 mM HEPES, 150 mM NaCl, 2 mM CaCl2, pH 7.5. (In general: BLI is a label-free optical method that tracks binding on a fibre tip over time.)

The target in data set [2] is T1, thrombin (human alpha thrombin). Briefly: inhibition; fluorogenic peptidyl substrate; >99% max inhibition; 2 mM CaCl2, pH 7.5, 28 C.
The target is the same in data set [3]. The experiment in a line: BLI; kon down 15-fold, koff up 8-fold; absolute KD only in figure.
The target is the same in data set [4]. Briefly: BLI; no binding observed.
Data set [5] has the same target. Briefly: inhibition; ±0.04; max inhibition 55%; KEA,I 1.8.
In data set [6] the target is T2, factor Xa (human, UniProt P00742;P00742 P00742:41-179,P00742:235-488). Briefly: inhibition; fluorogenic substrate; free DAB IC50 >500 nM. The following applies: tags: Haematologic Technologies Inc.
Data set [7] deals with T2, factor Xa. The experiment in a line: inhibition; fluorogenic substrate; free APX IC50 5.5 nM. The following applies: tags: Haematologic Technologies Inc.

T2 sequence (P00742 41-179, chain 1 of 2): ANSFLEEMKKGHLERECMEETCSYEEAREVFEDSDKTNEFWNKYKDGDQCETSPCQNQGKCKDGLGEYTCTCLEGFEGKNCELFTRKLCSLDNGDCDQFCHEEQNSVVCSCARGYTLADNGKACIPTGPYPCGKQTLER
T2 sequence (P00742 235-488, chain 2 of 2): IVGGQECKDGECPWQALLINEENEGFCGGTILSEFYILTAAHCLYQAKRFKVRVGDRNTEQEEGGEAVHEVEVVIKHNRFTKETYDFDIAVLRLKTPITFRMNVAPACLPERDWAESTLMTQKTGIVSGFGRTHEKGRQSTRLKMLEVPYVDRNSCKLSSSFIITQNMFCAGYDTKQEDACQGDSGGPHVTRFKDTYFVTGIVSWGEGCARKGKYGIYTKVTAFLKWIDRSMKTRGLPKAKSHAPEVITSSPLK

Consider AAAAAAAAGTCCGTGGTAGGGCAGGTTGGGGTGACT (ssDNA, 5' dabigatran-C6 amide; 5' A(7) dA linker) [HD22-7A-DAB], for which the Kd in data set [1] was 54 pM. The molecule also returned a 50% inhibitory concentration (IC50) in data set [2] of 100 pM. On to AAAAAAAAGTCCGTGGTAGGGCAGGTTGGGGTGACT (ssDNA, 5' NH2-C6; 5' A(7) dA linker) [HD22-7A-NH2], for which the Kd in data set [3] was > 100 fold weaker than HD22-7A-DAB. For the molecule AAAAAAAAGTCCGTAATAAAGCAGGTTAAAATGACT (ssDNA, 5' NH2-C6; 5' A(7) dA linker) [HD23-7A-NH2], the binding result in data set [4] is on record as “no binding”. AGTCCGTGGTAGGGCAGGTTGGGGTGACT (ssDNA, 5' dabigatran-C6) [HD22-0A-DAB] yielded an IC50 in data set [5] of 550 pM.

B1: 11F7t-20A-DAB (ssRNA)
RNA: AAAAAAAAAAAAAAAAAAAAGAGAGCCCCAGCGAGAUAAUACUUGGCCCCGCUCUU
modifications: 5' dabigatran-C6; 2'-OMe A(20) linker; C and U of aptamer 2'-F (inferred); 3' T
B1 displayed an IC50 in the data set with factor Xa [6] of 180 pM.

B2: 11F7t-20A-APX (ssRNA)
RNA: B1 RNA
modifications: 5' apixaban-C6; 2'-OMe A(20) linker; C and U of aptamer 2'-F (inferred); 3' T
B2: inhibition with factor Xa [7] was half-maximal at 170 pM (IC50).
